Laboratory results: patent publication US20230121197A1, “ANTIBODIES SPECIFICALLY BINDING THE CARBOXYMETHYLATED CATALYTIC SUBUNIT OF PROTEIN PHOSPHATASE 2A” (Medizinische Universität Wien, priority 2020, published 2023)
Blank lines part the entries; values can stand above or below the molecule they belong to.

What was measured:
[1] = molecular target: PP2Ac C-terminal peptide L309, ac-…-OH (unmodified) (human); test: ELISA, peptide coated at 2 µg/ml, antibody 1 µg/ml
[2] = molecular target: PP2Ac C-terminal peptide meL309, ac-…-CH3 (α-carboxymethylated) (human); test: ELISA, peptide coated at 2 µg/ml, antibody 1 µg/ml, normalized, N=4
[3] = molecular target: PP2Ac C-terminal peptide pT304-meL309, ac-HVTRRpTPDYFL-CH3 (human); test: as above
[4] = molecular target: PP2Ac C-terminal peptide meL309, ac-…-CH3 (α-carboxymethylated) (human); test: ELISA, peptide coated at 2 µg/ml, antibody 1 µg/ml, normalized, N=3
[5] = molecular target: PP2Ac C-terminal peptide pY307-meL309, ac-HVTRRTPDpYFL-CH3 (human); test: as above
[6] = molecular target: PP2Ac C-terminal peptide pY307-meL309, ac-HVTRRTPDpYFL-CH3 (human); test: ELISA, 4-fold dilution series of coated peptide, normalized, N=3
[7] = system: α-carboxymethylation of PP2Ac; test: H358 xenograft tumors, single dose DT-061 time-course: methyl-PP2Ac by IHC and western blot with 7C10-C5; type: in vivo, Balb/c nu/nu mice
Experimental: Next, the immunohistochemical analysis of xenograft tumors was performed. In brief, five micron sections from formalin-fixed paraffin-embedded (FFPE) specimens were deparaffinized in Histo-Clear and ethanol, exposed to 0.3% hydrogen peroxide to block endogenous peroxidase activity, and incubated for antigen retrieval with a citrate-based antigen unmasking solution (H-3300, Vector Laboratories) in a pressure cooker. Tumor sections were blocked with Mouse Ig Blocking Reagent (BMK-2202, Vector Laboratories), and incubated with anti-carboxymethyl PP2Ac specific antibody (7C10-C5) or an antibody recognizing total PP2Ac (ab106262) at 4° C. for two nights. Washes were performed in PBS. Slides were subsequently developed using secondary anti-mouse immunoglobulins/HRP (K1497, Agilent), DAB peroxidase substrate as the chromagen, and hematoxylin for counterstaining nuclei. Slides were sealed, and randomized for subsequent blinded review. Two independent researchers scored the level of carboxymethylated PP2Ac staining (with 7C10-C5) in one section per tumor (min. 6 tumors per treatment/control group). […] Scores from 0-2 are considered low staining, 2-4 as moderate, and 4-6 as high intensity staining. Based on these scores the data was plotted as the percentage of slides from each time point that fell into each group (FIG. 14I).

c-MYC = test: H358 xenograft tumors, single dose DT-061 time-course: c-MYC IHC; type: in vivo, Balb/c nu/nu mice; details: single dose DT-061
[8] = mouse, in vivo, 5 mg/kg
[9] = molecular target: PP2Ac C-terminal peptide meL309, ac-…-CH3 (α-carboxymethylated) (human); test: ELISA, peptide coated at 2 µg/ml, antibody 1 µg/ml, values normalized to L309, N=6
[10] = molecular target: PP2Ac C-terminal peptide pT304-L309, ac-HVTRRpTPDYFL-OH (human); test: as above
[11] = molecular target: PP2Ac C-terminal peptide pT304-meL309, ac-HVTRRpTPDYFL-CH3 (human); test: as above
[12] = molecular target: PP2Ac C-terminal peptide pY307-meL309, ac-HVTRRTPDpYFL-CH3 (human); test: as above
[13] = molecular target: PP2Ac peptides L309, Y307F, pY307, meL309 crosslinked to BSA (Homo sapiens, UniProt P67775); test: Western blot of BSA crosslinked PP2Ac peptides (scFv 7C10-C5); type: binding; details: 100 ng BSA crosslinked peptides
Experimental: 100 ng of BSA crosslinked with peptides (L309: CGEPHVTRRTPDYFL (SEQ ID NO:49), Y307F: CGEPHVTRRTPDFFL (SEQ ID NO.50), pY307: CGEPHVTRRTPDpYFL (SEQ ID NO:51) or meL309: CGEPHVTRRTPDYFL-CH3) (SEQ ID NO:49) was separated by 10% SDS-PAGE and transferred to nitrocellulose membrane (0.2 μm, GE Healthcare). Of note, the Y307F peptide cannot be phosphorylated at position 307 due to the presence of a phenylalanine. The membranes were blocked in 3% non-fatty dry milk (NFDM) in TBS-Tween for 1 h at RT and incubated with single clone hybridoma cell culture supernatant, clone 7C10-C5 diluted 1:100 in 0.5% NFDM in TBS-T (7C10 X63), recombinant single chain variable fragment of antibody 7C10-C5, undiluted (7C10 scFvs), recombinant bivalent single chain variable fragment 7C10-C5, undiluted (7C10 bi-scFvs) or single clone hybridoma cell culture supernatant, clone 1D7 (binding to non-carboxymethylated PP2Ac) 1:100 in 0.5% NFDM in TBS-T o/n at 4° C. After washing 3×5 min in TBS-T, blots incubated with recombinant antibodies were incubated with mouse anti-HA monoclonal antibody 16B12 (recognizing the hemagglutinin (HA) tag on the recombinant antibody), 1:10000 in 0.5% NFDM in TBS-T 2 h at room temperature. After washing 3×5 min in TBS-T, incubation with anti-mouse-HRP coupled secondary antibody for 1 h at RT and 3×10 min washes in TBS-T was performed. […] Signals were detected by exposure of X-ray films. […]

[14] = molecular target: T1, C-terminal PP2Ac peptides L309, Y307F, pY307, meL309 (Homo sapiens, UniProt P67775); test: ELISA with CGEPHVTRRTPDYFL peptides free or linked to BSA (scFv and recombinant 7C10-C5); type: binding; details: for recognition of meL309 versus non-carboxymethylated peptides: peptides free or linked to BSA
T1 construct: coated with C-terminal PP2Ac peptides either free or linked to BSA; BSA (carrier)
Experimental: Nunc Medisorp 96-well ELISA flat-bottom plates were coated with C-terminal PP2Ac peptides either free or linked to BSA. Specifically, the peptides were: unmodified L309 (CGEPHVTRRTPDYFL) (SEQ ID NO:49), Y307F (CGEPHVTRRTPDFFL) (SEQ ID NO:50), pY307 (CGEPHVTRRTPDpYFL) (SEQ ID NO:51) or carboxymethylated meL309 (CGEPHVTRRTPDYFL-CH3) (SEQ ID NO:49), on the ELISA plate at 8 μg/ml in TBS (free) or 1 μg/ml in TBS (linked to BSA) at 4° C. overnight. After washing twice with TBS, the wells were incubated with 2% BSA in TBS for 1 h at RT. After washing once with TBS, the wells were incubated with single clone hybridoma cell culture supernatant, clone 7C10-C5 1:50 (7C10 X63), recombinant single chain variable fragment of antibody 7C10-C5, undiluted (7C10 scFvs), or recombinant bivalent single chain variable fragment of antibody 7C10-C5, undiluted (7C10 bi-scFvs). After washing 3× with TBS, wells incubated with recombinant antibodies were incubated with monoclonal antibody 16B12, 1:10000 (recognizing the hemagglutinin tag on the recombinant antibody) in 1% BSA TBS 1 h at room temperature. After washing 3× in TBS, incubation with anti-mouse-HRP coupled secondary antibody for 1 h at RT was performed. Bound antibodies were detected by colorimetric reaction with 3,3′,5,5′-Tetramethylbenzidine as substrate, and absorbance was measured at 450 nm. Values were normalized to meL309 which was arbitrarily set to 1. Average and standard deviation of N=3 experiments are shown.
Nunc Medisorp 96-well ELISA flat-bottom plates were coated with peptides either free or linked to BSA, L309 (CGEPHVTRRTPDYFL) (SEQ ID NO:49) or meL309 (CGEPHVTRRTPDYFL-CH3) (SEQ ID NO:49), on the ELISA plate at 0.5 μg/ml in TBS (free) or […] in TBS (linked to BSA) at 4° C. over night. After washing twice with TBS, the wells were incubated with 2% BSA in TBS for 1 h at RT. After washing once with TBS, the wells were incubated with single clone hybridoma cell culture supernatant, clone 7C10-C5 1:50 (7C10 X63), or recombinant antibody 7C10-C5 undiluted (rec 7C10). After washing 3× with TBS, incubation with anti-mouse-HRP coupled secondary antibody for 1 h at RT was performed. Bound antibodies were detected by colorimetric reaction with 3,3′,5,5′-Tetramethylbenzidine as substrate, and absorbance was measured at 450 nm. Values were normalized to meL309 incubated with 7C10 X63, which was arbitrarily set to 1. Average and standard deviation of N=3 experiments are shown (FIG. 30).

Molecule: O=S(=O)(N[C@@H]1CCC[C@H](N2c3ccccc3Oc3ccccc32)[C@H]1O)c1ccc(OC(F)(F)F)cc1 [DT-061]
- return of α-carboxymethylated PP2Ac to basal levels post treatment ([7]; single dose DT-061): ≤ 12 h
- α-carboxymethylated PP2Ac in xenograft tumors after treatment ([7]; single dose DT-061 (5 mg/kg), IHC with 7C10-C5): increase in α-carboxymethylated PP2Ac at early time points (one, two, and three hours)
- return of c-MYC to basal levels (c-MYC): ≤ 6 h
- c-MYC in xenograft tumors after treatment (c-MYC; IHC): significant decrease of c-MYC at early time points (one, two, and three hours)
- half-life obtained from serum [8]: 6.3 h

B1: monovalent scFv 7C10-C5: recombinant monovalent single chain variable fragment of antibody 7C10-C5 (SEQ ID NO:42) (protein)
scFv: MDMRVPAQLLGLLLLWLSGARCDVLMTQTPLSLPVSLGDQASISCRSSQSIVHSNGNTYLEWYLQKPGQSPKLLIYKVSNRFSGVPDRFSGSGSGTDFTLKINRVEAEDLGVYYCFQGSHVPWTFGGGTKLEIKSSGGGGSGGGGGGSSRSSLDVQLQESGPGLVKPSQSLSLTCSVTGYSITSGYYWNWIRQFPGNKLEWMGYISYDGSNNYNPSLKNRISITRDTSKNQFFLKLNSVTTEDTATYYCAGRFAYWGQGTLVTVSAAKTTPPSVTSGQAGQHHHHHHGAYPYDVPDYAS
modifications: recombinant monovalent scFv antibody
- recognition of meL309 versus non-carboxymethylated peptides [13]: specifically recognized the carboxymethylated meL309 peptide, but none of the non-carboxymethylated peptides
- recognition of meL309 versus non-carboxymethylated peptides [14]: specifically recognized the carboxymethylated meL309 peptide, but none of the non-carboxymethylated peptides

B2: bivalent scFv 7C10-C5: recombinant bivalent single chain variable fragment of antibody 7C10-C5 (SEQ ID NO:44) (protein)
scFv: MDMRVPAQLLGLLLLWLSGARCDVLMTQTPLSLPVSLGDQASISCRSSQSIVHSNGNTYLEWYLQKPGQSPKLLIYKVSNRFSGVPDRFSGSGSGTDFTLKINRVEAEDLGVYYCFQGSHVPWTFGGGTKLEIKSSGGGGSGGGGGGSSRSSLDVQLQESGPGLVKPSQSLSLTCSVTGYSITSGYYWNWIRQFPGNKLEWMGYISYDGSNNYNPSLKNRISITRDTSKNQFFLKLNSVTTEDTATYYCAGRFAYWGQGTLVTVSAAKTTPPSVGSGSGSGSGSGSGSGSGSGSGSGSGSGSGSDVLMTQTPLSLPVSLGDQASISCRSSQSIVHSNGNTYLEWYLQKPGQSPKLLIYKVSNRFSGVPDRFSGSGSGTDFTLKINRVEAEDLGVYYCFQGSHVPWTFGGGTKLEIKSSGGGGSGGGGGGSSRSSLDVQLQESGPGLVKPSQSLSLTCSVTGYSITSGYYWNWIRQFPGNKLEWMGYISYDGSNNYNPSLKNRISITRDTSKNQFFLKLNSVTTEDTATYYCAGRFAYWGQGTLVTVSAAKTTPPSVTSGQAGQHHHHHHGAYPYDVPDYAS
modifications: recombinant bivalent scFv antibody
- recognition of meL309 versus non-carboxymethylated peptides [13]: specifically recognized the carboxymethylated meL309 peptide, but none of the non-carboxymethylated peptides
- binding to meL309 peptide, bivalent versus monovalent scFv [14]: bound stronger to the meL309 peptide than the monovalent scFv
- recognition of meL309 versus non-carboxymethylated peptides [14]: specifically recognized the carboxymethylated meL309 peptide, but none of the non-carboxymethylated peptides

Other lines, results leading:

- fold higher ELISA signal intensity than with the α-carboxymethylated counterpart (meL309) [1]: 4.7 to 8.2 fold
- fold-change of ELISA signal, L309 over meL309 [2]: 4.65 fold
- fold-change of ELISA signal, L309 over pT304-meL309 [3]: 50 fold
- fold-change of ELISA signal, meL309 over pT304-meL309 [3]: 10.7 fold
- fold-change of ELISA signal, pT304-L309 over pT304-meL309 [3]: 36.1 fold
- fold-change of ELISA signal, L309 over meL309 [4]: 8.2 fold
- fold-change of ELISA signal, pY307-L309 over pY307-meL309 [5]: 2.5 fold
- fold-change of ELISA signal, pY307-meL309 over meL309 [5]: 3.36 fold
- EC50 (read off the curve) [6]: 0.3 µg/mL
Molecule: rabbit monoclonal antibody E155 (Abcam #ab32104 lot GR17965-24)

- fold higher ELISA signal intensity than with the α-carboxymethylated counterpart (meL309) [1]: 8 fold
- fold-change of ELISA signal, L309 over meL309 [9]: 8.27 fold
- fold-change of ELISA signal, L309 over pT304-L309 [10]: 1.75 fold
- fold-change of ELISA signal, pT304-L309 over pT304-meL309 [11]: 7.39 fold
- fold-change of ELISA signal, pY307-L309 over pY307-meL309 [12]: 8.27 fold
Molecule: mouse monoclonal antibody 4B7 (SCBT, sc-13601, lot 0716)
